Substrate: COc1cc(CO)ccc1O
Assay: purified protein
Type: biochemical, Rhodococcus jostii
Settings: free EUGO, O2 as co-substrate (air), ambient conditions, 50 mM Glycine·NaOH buffer, pH 8.0, N = 1, called preliminary

B1: eugenol oxidase (EUGO); 6xHis-eugenol-oxidase-StrepTag-II (Rhodococcus jostii RHA1) (protein)
chain: MTRTLPPGVSDERFDAALQRFRDVVGDKWVLSTADELEAFRDPYPVGAAEANLPSAVVSPESTEQVQDIVRIANEYGIPLSPVSTGKNNGYGGAAPRLSGSVIVKTGERMNRILEVNEKYGYALLEPGVTYFDLYEYLQSHDSGLMLDCPDLGWGSVVGNTLDRGVGYTPYGDHFMWQTGLEVVLPQGEVMRTGMGALPGSDAWQLFPYGFGPFPDGMFTQSNLGIVTKMGIALMQRPPASQSFLITFDKEEDLEQIVDIMLPLRINMAPLQNVPVLRNIFMDAAAVSKRTEWFDGDGPMPAEAIERMKKDLDLGFWNFYGTLYGPPPLIEMYYGMIKEAFGKIPGARFFTHEERDDRGGHVLQDRHKINNGIPSLDELQLLDWVPNGGHIGFSPVSAPDGREAMKQFEMVRNRANEYNKDYAAQFIIGLREMHHVCLFIYDTAIPEAREEILQMTKVLVREAAEAGYGEYRTHNALMDDVMATFNWGDGALLKFHEKIKDALDPNGIIAPGKSGIWSQRFRGQNL
notes: N-terminal His6 tag and C-terminal Strep-tag II, tags kept; gene from vector pEUGOA cloned into pET-28a(+) (pET-28-eugo-STII); E. coli BL21 (DE3) gold; Ni Sepharose purified; dimer, theoretical 124 kDa
With B1 the Km was 80 ± 20 µM and the kcat was 5 ± 1 s⁻¹.

— paper PMC10638201, “Application of electrospun chitosan-based nanofibers as immobilization matrix for biomolecules” (Applied Microbiology and Biotechnology, 2023)
